Measured values: PMC10786891, “Massively parallel profiling of RNA-targeting CRISPR-Cas13d”

T1: EsCas13d, nuclease-dead (Eubacterium siraeum, UniProt B0MS50, R295A;H300A;R849A;H854A)
T1 sequence: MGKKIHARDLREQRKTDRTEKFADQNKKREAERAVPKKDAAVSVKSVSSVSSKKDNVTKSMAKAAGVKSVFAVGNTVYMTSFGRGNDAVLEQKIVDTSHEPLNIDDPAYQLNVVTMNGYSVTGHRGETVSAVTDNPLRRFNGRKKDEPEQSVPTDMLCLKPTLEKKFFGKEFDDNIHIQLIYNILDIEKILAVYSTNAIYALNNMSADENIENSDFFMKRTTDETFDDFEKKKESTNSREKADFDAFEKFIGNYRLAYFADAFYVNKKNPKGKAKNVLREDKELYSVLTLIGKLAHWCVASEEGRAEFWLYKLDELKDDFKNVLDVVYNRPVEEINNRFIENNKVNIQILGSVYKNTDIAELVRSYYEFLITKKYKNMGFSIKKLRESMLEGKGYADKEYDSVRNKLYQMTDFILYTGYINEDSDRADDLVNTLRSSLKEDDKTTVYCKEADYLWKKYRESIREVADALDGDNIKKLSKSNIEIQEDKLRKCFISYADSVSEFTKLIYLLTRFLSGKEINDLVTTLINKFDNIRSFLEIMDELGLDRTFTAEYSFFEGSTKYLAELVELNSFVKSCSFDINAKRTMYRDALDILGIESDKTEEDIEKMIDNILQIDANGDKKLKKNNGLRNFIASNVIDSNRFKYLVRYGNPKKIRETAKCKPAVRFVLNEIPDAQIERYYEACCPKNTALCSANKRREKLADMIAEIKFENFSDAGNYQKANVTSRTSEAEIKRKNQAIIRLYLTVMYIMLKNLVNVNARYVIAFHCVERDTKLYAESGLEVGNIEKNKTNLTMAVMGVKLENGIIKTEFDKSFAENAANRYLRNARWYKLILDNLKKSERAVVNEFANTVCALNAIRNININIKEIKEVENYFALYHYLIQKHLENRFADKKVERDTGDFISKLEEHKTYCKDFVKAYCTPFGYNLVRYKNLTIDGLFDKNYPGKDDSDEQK

B1: target 1 MT (60-mer) (mixed)
RNA 1: CACCCGUGCAAAAAUGCAGGGGUCUAAAACUGAGCGGAUAACCUCUCUAUGG
RNA 2: CCACAUCUACGAAUUCGUACCAUAGAGAGGUUAUCCGCUCACCGAGAUCGGAAGAGCACA
B2: target 1 MT 5'PFS AAG 3'PFS UAC (mixed)
RNA 1: CACCCGUGCAAAAAUGCAGGGGUCUAAAACUGAGCGGAUAACCUCUCUAUGG
RNA 2: GGGAAUGGAUCCACAUCUACGAAUUCAAGCCAUAGAGAGGUUAUCCGCUCAUACAGAUCGGAAGAGCACACGU
B3: target 1 MT 5'PFS UUG 3'PFS UGU (mixed)
RNA 1: CACCCGUGCAAAAAUGCAGGGGUCUAAAACUGAGCGGAUAACCUCUCUAUGG
RNA 2: GGGAAUGGAUCCACAUCUACGAAUUCUUGCCAUAGAGAGGUUAUCCGCUCAUGUAGAUCGGAAGAGCACACGU
B4: target 1 MT 5'PFS GCU 3'PFS CAA (mixed)
RNA 1: CACCCGUGCAAAAAUGCAGGGGUCUAAAACUGAGCGGAUAACCUCUCUAUGG
RNA 2: GGGAAUGGAUCCACAUCUACGAAUUCGCUCCAUAGAGAGGUUAUCCGCUCACAAAGAUCGGAAGAGCACACGU
B5: target 1 MT 5'PFS CCC 3'PFS UAA (mixed)
RNA 1: CACCCGUGCAAAAAUGCAGGGGUCUAAAACUGAGCGGAUAACCUCUCUAUGG
RNA 2: GGGAAUGGAUCCACAUCUACGAAUUCCCCCCAUAGAGAGGUUAUCCGCUCAUAAAGAUCGGAAGAGCACACGU
B6: target 1 MT 5'PFS CUG 3'PFS AUA (mixed)
RNA 1: CACCCGUGCAAAAAUGCAGGGGUCUAAAACUGAGCGGAUAACCUCUCUAUGG
RNA 2: GGGAAUGGAUCCACAUCUACGAAUUCCUGCCAUAGAGAGGUUAUCCGCUCAAUAAGAUCGGAAGAGCACACGU
B7: target 1 MT 5'PFS GCU 3'PFS UAA (mixed)
RNA 1: CACCCGUGCAAAAAUGCAGGGGUCUAAAACUGAGCGGAUAACCUCUCUAUGG
RNA 2: GGGAAUGGAUCCACAUCUACGAAUUCGCUCCAUAGAGAGGUUAUCCGCUCAUAAAGAUCGGAAGAGCACACGU
B8: target 1 MT 5'PFS GCC 3'PFS CGU (mixed)
RNA 1: CACCCGUGCAAAAAUGCAGGGGUCUAAAACUGAGCGGAUAACCUCUCUAUGG
RNA 2: GGGAAUGGAUCCACAUCUACGAAUUCGCCCCAUAGAGAGGUUAUCCGCUCACGUAGAUCGGAAGAGCACACGU
B9: target 1 MT 5'PFS GCC 3'PFS CGA (mixed)
RNA 1: CACCCGUGCAAAAAUGCAGGGGUCUAAAACUGAGCGGAUAACCUCUCUAUGG
RNA 2: GGGAAUGGAUCCACAUCUACGAAUUCGCCCCAUAGAGAGGUUAUCCGCUCACGAAGAUCGGAAGAGCACACGU
B10: target 1 MT 5'PFS UAC 3'PFS AUG (mixed)
RNA 1: CACCCGUGCAAAAAUGCAGGGGUCUAAAACUGAGCGGAUAACCUCUCUAUGG
RNA 2: GGGAAUGGAUCCACAUCUACGAAUUCUACCCAUAGAGAGGUUAUCCGCUCAAUGAGAUCGGAAGAGCACACGU
B11: target 1 MT 5'PFS CUG 3'PFS AUG (mixed)
RNA 1: CACCCGUGCAAAAAUGCAGGGGUCUAAAACUGAGCGGAUAACCUCUCUAUGG
RNA 2: GGGAAUGGAUCCACAUCUACGAAUUCCUGCCAUAGAGAGGUUAUCCGCUCAAUGAGAUCGGAAGAGCACACGU
B12: target 1 insG 3' of 14,insG 3' of 8 (mixed)
RNA 1: CACCCGUGCAAAAAUGCAGGGGUCUAAAACUGAGCGGAUAACCUCUCUAUGG
RNA 2: GGGAAUGGAUCCACAUCUACGAAUUCGUACCAUAGAGAGGGUUAUGCCGCUCACCGAGAUCGGAAGAGCACACGU
B13: target 1 U3G,G15A (mixed)
RNA 1: CACCCGUGCAAAAAUGCAGGGGUCUAAAACUGAGCGGAUAACCUCUCUAUGG
RNA 2: GGGAAUGGAUCCACAUCUACGAAUUCGUACCAUAGAAAGGUUAUCCGCGCACCGAGAUCGGAAGAGCACACGU
B14: target 1 MT 5'PFS GCC 3'PFS UGC (mixed)
RNA 1: CACCCGUGCAAAAAUGCAGGGGUCUAAAACUGAGCGGAUAACCUCUCUAUGG
RNA 2: GGGAAUGGAUCCACAUCUACGAAUUCGCCCCAUAGAGAGGUUAUCCGCUCAUGCAGAUCGGAAGAGCACACGU
B15: target 1 MT 5'PFS AGG 3'PFS UCC (mixed)
RNA 1: CACCCGUGCAAAAAUGCAGGGGUCUAAAACUGAGCGGAUAACCUCUCUAUGG
RNA 2: GGGAAUGGAUCCACAUCUACGAAUUCAGGCCAUAGAGAGGUUAUCCGCUCAUCCAGAUCGGAAGAGCACACGU
B16: target 1 MT 5'PFS UAA 3'PFS AGA (mixed)
RNA 1: CACCCGUGCAAAAAUGCAGGGGUCUAAAACUGAGCGGAUAACCUCUCUAUGG
RNA 2: GGGAAUGGAUCCACAUCUACGAAUUCUAACCAUAGAGAGGUUAUCCGCUCAAGAAGAUCGGAAGAGCACACGU
B17: target 1 MT 5'PFS UAC 3'PFS AUU (mixed)
RNA 1: CACCCGUGCAAAAAUGCAGGGGUCUAAAACUGAGCGGAUAACCUCUCUAUGG
RNA 2: GGGAAUGGAUCCACAUCUACGAAUUCUACCCAUAGAGAGGUUAUCCGCUCAAUUAGAUCGGAAGAGCACACGU
B18: target 1 MT 5'PFS GGA 3'PFS AGA (mixed)
RNA 1: CACCCGUGCAAAAAUGCAGGGGUCUAAAACUGAGCGGAUAACCUCUCUAUGG
RNA 2: GGGAAUGGAUCCACAUCUACGAAUUCGGACCAUAGAGAGGUUAUCCGCUCAAGAAGAUCGGAAGAGCACACGU
B19: target 1 MT 5'PFS GCC 3'PFS UGU (mixed)
RNA 1: CACCCGUGCAAAAAUGCAGGGGUCUAAAACUGAGCGGAUAACCUCUCUAUGG
RNA 2: GGGAAUGGAUCCACAUCUACGAAUUCGCCCCAUAGAGAGGUUAUCCGCUCAUGUAGAUCGGAAGAGCACACGU
B20: target 1 MT 5'PFS CAG 3'PFS UGA (mixed)
RNA 1: CACCCGUGCAAAAAUGCAGGGGUCUAAAACUGAGCGGAUAACCUCUCUAUGG
RNA 2: GGGAAUGGAUCCACAUCUACGAAUUCCAGCCAUAGAGAGGUUAUCCGCUCAUGAAGAUCGGAAGAGCACACGU
B21: target 1 MT 5'PFS GCC 3'PFS CGC (mixed)
RNA 1: CACCCGUGCAAAAAUGCAGGGGUCUAAAACUGAGCGGAUAACCUCUCUAUGG
RNA 2: GGGAAUGGAUCCACAUCUACGAAUUCGCCCCAUAGAGAGGUUAUCCGCUCACGCAGAUCGGAAGAGCACACGU
B22: target 1 MT 5'PFS GCU 3'PFS UAG (mixed)
RNA 1: CACCCGUGCAAAAAUGCAGGGGUCUAAAACUGAGCGGAUAACCUCUCUAUGG
RNA 2: GGGAAUGGAUCCACAUCUACGAAUUCGCUCCAUAGAGAGGUUAUCCGCUCAUAGAGAUCGGAAGAGCACACGU
B23: target 1 MT 5'PFS CUG 3'PFS AUU (mixed)
RNA 1: CACCCGUGCAAAAAUGCAGGGGUCUAAAACUGAGCGGAUAACCUCUCUAUGG
RNA 2: GGGAAUGGAUCCACAUCUACGAAUUCCUGCCAUAGAGAGGUUAUCCGCUCAAUUAGAUCGGAAGAGCACACGU
B24: target 1 MT 5'PFS UAA 3'PFS AGG (mixed)
RNA 1: CACCCGUGCAAAAAUGCAGGGGUCUAAAACUGAGCGGAUAACCUCUCUAUGG
RNA 2: GGGAAUGGAUCCACAUCUACGAAUUCUAACCAUAGAGAGGUUAUCCGCUCAAGGAGAUCGGAAGAGCACACGU
B25: target 1 MT 5'PFS GCC 3'PFS UGA (mixed)
RNA 1: CACCCGUGCAAAAAUGCAGGGGUCUAAAACUGAGCGGAUAACCUCUCUAUGG
RNA 2: GGGAAUGGAUCCACAUCUACGAAUUCGCCCCAUAGAGAGGUUAUCCGCUCAUGAAGAUCGGAAGAGCACACGU
B26: target 1 MT 5'PFS GCC 3'PFS CGG (mixed)
RNA 1: CACCCGUGCAAAAAUGCAGGGGUCUAAAACUGAGCGGAUAACCUCUCUAUGG
RNA 2: GGGAAUGGAUCCACAUCUACGAAUUCGCCCCAUAGAGAGGUUAUCCGCUCACGGAGAUCGGAAGAGCACACGU

The binders below were run against T1, EsCas13d, nuclease-dead (assay: BLI; crRNA (strand 1, pre-loaded); Mg2+; 40 mM Tris-HCl pH 7.5, 150 mM NaCl, 6 mM MgCl2, 1 mM DTT, 0.1% Tween-20, 0.2 mg/ml BSA; temperature not stated). Settings: tags: His6-TwinStrep-SUMO cleaved; label: 3' biotin on strand 2.
For B1, the koff was 0.00052 s⁻¹ and the kon was 170000 M⁻¹ s⁻¹.

What follows are binders tested against T1, EsCas13d, nuclease-dead (assay: crRNA (strand 1, pre-loaded); Mg2+; 40 mM Tris-HCl pH 7.5, 150 mM NaCl, 6 mM MgCl2, 1 mM DTT, 0.1% Tween-20, 0.2 mg/ml BSA; 25 C; 10 min per concentration, then washed). Settings: tags: His6-TwinStrep-SUMO cleaved; N-terminal SNAP kept (SNAP-Surface 488); label: 3' end held by stalled T7 RNA polymerase.
B2 showed a Kd of 24 ± 7 nM.
B3 showed a Kd of 51 ± 11.5 nM.
With B4 the Kd was roughly 60 nM.
With B5 the Kd was roughly 11 nM.
B6 showed a Kd of 5.05 ± 1.4 nM.
With B7 the Kd was 49.5 ± 11 nM.
B8 showed a Kd of 10.1 ± 1.65 nM.
With B9 the Kd was 18.5 ± 7.5 nM.
For B10, the Kd was 43 ± 20.5 nM.
In the case of B11, the Kd is reported as 33.5 ± 8 nM.
Binder B12 has a Kd of 9.7 ± 0.7 nM.
B13 was tested, and the Kd was 17.5 ± 1 nM.
In the case of B14, the Kd is reported as 9 ± 1.35 nM.
B15 gave a Kd of 49 ± 19 nM.
Binder B16 has a Kd of 37 ± 6.5 nM.
Work on B17 yielded a Kd of 26.5 ± 8 nM.
In the case of B18, the Kd is reported as 20.5 ± 2.75 nM.
For B19, the Kd was 20 ± 5 nM.
B20 was tested, and the Kd was roughly 60 nM.
B21 gave a Kd of 15.5 ± 6 nM.
In the case of B22, the Kd is reported as roughly 95 nM.
Work on B23 yielded a Kd of 6.05 ± 1.6 nM.
B24 was tested, and the Kd was roughly 75 nM.
In the case of B25, the Kd is reported as 11.8 ± 2.3 nM.
B26 showed a Kd of 26.1 ± 9.1 nM.
